The values that follow come from US11932880B2, “Enzyme and method for assaying pentosidine using same” (priority 2018, dated 2024).

The nature of data set [1]: Enzyme activity measurement with pentosidine as substrate (A555 change, U/mL). The note with it: 37° C.; for specific activity, as a reference value (pentosidine oxidase): 1 mg of powder dissolved in 1 mL deionized water; for pentosidine oxidase activity: purchased enzymes at 1 mg/mL, potassium phosphate buffer pH 7.5, 100 mM. The format is biochemical. The protocol:
600 μL of an arbitrary buffer, 400 μL of deionized water solution in which 3.99 U/mL peroxidase, 1.8 mM 4-aminoantipyrine and 2 mM TOOS were dissolved, and 150 μL of deionized water were incubated at an arbitrary temperature for 10 minutes. Then, 50 μL of the enzyme solution having been stored on ice and 400 μL of a solution of 4 mM pentosidine dissolved in a 100 mM potassium phosphate buffer (pH 8.0) having been incubated at an arbitrary temperature for 10 minutes were added thereto, followed by stirring and reacting at an arbitrary temperature for 3 minutes. A change over time of A555 during the reaction was measured using a spectrophotometer (U-3900, manufactured by Hitachi High-Tech Science Corporation). An elapsed time from the start of the measurement of 20 seconds to 60 seconds—A555 change was regarded as an activity value.
Besides, an amount of the enzyme generating 1 μmol of hydrogen peroxide per minute at 37° C. was defined as one unite (U), and the activity was calculated in accordance with the following equation. Activity (U/mL)={(ΔAs−ΔA0)×1.6×df}/(39.2×0.5×0.05) • ΔAs: change of A555 per minute of reaction solution • ΔA0: change of A555 per minute of control experiment • 1.6: volume (mL) of whole reaction solution • df: dilution factor • 39.2: millimolar absorbance coefficient (mM^−1-cm-1) of quinoneimine pigment generated through reaction • 0.5: molar number of quinoneimine pigment generated by 1 mol of hydrogen peroxide • 0.05: volume (mL) of enzyme solution
A 50 mM citric acid-100 mM potassium phosphate buffer (pH 4.0 to 7.5, a final concentration), a potassium phosphate buffer (pH 6.5 to 8.0, a final concentration of 100 mM), and a glycine buffer (pH 8.0 to 11.0, a final concentration of 100 mM) were prepared, and these were used to perform an enzymatic reaction at respective pH at a temperature of 37° C. […] Therefore, it was determined that the optimum pH of PenOX2 is pH 6.5 to 8.0, and that the most suitable optimum pH is pH 7.5.
A potassium phosphate buffer (pH 7.5) having a final concentration of 50 mM was used to perform the activity measurement of PenOX2 at various temperatures. The highest activity was obtained around 50° C., and a temperature range for attaining 80% or more of this highest activity was 37° C. to 50° C. Therefore, it was determined that the range of the optimum temperature of PenOX2 is 37° C. to 50° C.
The above-described activity measurement method was employed to perform activity measurement using a potassium phosphate buffer (final pH in the activity measurement: pH 7.5, final concentration of 50 mM) at 37° C., and an activity value (U/mL) was obtained by using the aforementioned equation.
As described above, both PenOX1 and PenOX2 had the pentosidine oxidase activity. […] Subsequently, the following three enzymes were purchased, and the above-described activity measurement method was employed for confirming their pentosidine oxidase activity using a potassium phosphate buffer (pH 7.5, final concentration of 100 mM) at 37° C. The amino acid sequence homologies with PenOX1 and PenOX2 and the pentosidine oxidase activities of these enzymes were as follows.

Data set [2] is described as follows: Pentosidine quantitative test (DA-67/peroxidase, A658, Bio Majesty JCA-BM1650). The following applies: 0.2-4.0 μM pentosidine solutions, 37° C., 5 minutes; ΔA658 correlated with final pentosidine concentration (FIG. 4). The format is biochemical. As for the experimental part: The following reagents were prepared to measure pentosidine by using Bio Majesty JCA-BM1650 (manufactured by JEOL Ltd.).
0.2 μM, 0.4 μM, 0.6 μM, 1.0 μM, 2.0 μM or 4.0 μM pentosidine solution
25 μL of the sample was added to 50 μL of the first reagent, and the resultant was incubated at 37° C. for 5 minutes. Then, 25 μL of the second reagent was added thereto to allow a pentosidine oxidation reaction owing to PenOX2 and a detection reaction for hydrogen peroxide generated through the reaction to proceed at 37° C. for 5 minutes.
In the detection reaction for hydrogen peroxide, simultaneously with consumption of […], DA-67 is oxidized into methylene blue to present the color, and the absorbance (A658) is increased. As an example, the relationship between the elapsed time after the mixture of the sample (4.0 μM pentosidine solution) and the first reagent and the absorbance (A658) is shown in FIG. 3. It was confirmed that A658 increased immediately after the addition of the second reagent containing PenOX2.
Subsequently, an A658 increment (AA) caused by the oxidation of pentosidine was calculated in accordance with the following equation: ΔA=(absorbance 5 min after addition of second reagent)−(absorbance immediately before addition of second reagent×0.75)

B1: Lysine Oxidase Derived from Trichoderma viride: purchased enzyme manufactured by Merck, SEQ ID NO: 14 (protein)
chain: MDNVDFAESVRTRWARRLIREKVAKELNILTERLGEVPGIPPPREGRFLGGGYSHDNLPSDPLYSSIKPALLKEAPRAEEELPPRKVCIVGAGVSGLYIAMILDDLKIPNLTYDIFESSSRTGGRLYTHHFTDAKHDYYDIGAMRYPDIPSMKRTFNLFKRTGMPLIKYYLDGENTPQLYNNHFFAKGVVDPYMVSVANGGTVPDDVVDSVGEKLQQAFGYYKEKLAEDFDKGFDELMLVDDMTTREYLKRGGPKGEAPKYDFFAIQWMETQNTGTNLFDQAFSESVIDSFDFDNPTKPEWYCIEGGTSLLVDAMKETLVHKVQNNKRVEAISIDLDAPDDGNMSVKIGGKDYSGYSTVFNTTALGCLDRMDLRGLNLHPTQADAIRCLHYDNSTKVALKFSYPWWIKDCGITCGGAASTDLPLRTCVYPSYNLGDTGEAVLLASYTWSQDATRIGSLVKDAPPQPPKEDELVELILQNLARLHAEHMTYEKIKEAYTGVYHAYCWANDPNVGGAFALFGPGQFSNLYPYLMRPAAGGKFHIVGEASSVHHAWIIGSLESAYTAVYQFLYKYKMWDYLRLLLERWQYGLQELETGKHGTAHLQFILGSLPKEYQVKIV
modifications: Trichoderma viride
As for B1, in data set [1] (pH 7.5, 100 mM), the “specific activity, as a reference value (pentosidine oxidase)” value is listed as 0.063 U/mg. Also, the pentosidine oxidase activity in data set [1] is 0.063 U/mL.

B2: Amino Acid Oxidase Type VI Derived from Crotalus adamanteus: purchased enzyme manufactured by Merck, SEQ ID NO: 12 (protein, listed as Crotalus adamanteus)
chain: AHDRNPLEECFRETDYEEFLEIAKNGLTATSNPKRVVIVGAGMAGLSAAYVLAGAGHQVTVLEASERVGGRVRTYRKKDWYANLGPMRLPTKHRIVREYIKKFDLKLNEFSQENENAWYFIKNIRKRVREVKNNPGLLEYPVKPSEEGKSAAQLYVESLRKVVEELRSTNCKYILDKYDTYSTKEYLLKEGNLSPGAVDMIGDLLNEDSGYYVSFIESLKHDDIFGYEKRFDEIVGGMDQLPTSMYEAIKEKVQVHFNARVIEIQQNDREATVTYQTSANEMSSVTADYVIVCTTSRAARRIKFEPPLPPKKAHALRSVHYRSGTKIFLTCTKKFWEDDGIHGGKSTTDLPSRFIYYPNHNFTSGVGVIIAYGIGDDANFFQALDFKDCADIVINDLSLIHELPKEDIQTFCHPSMIQRWSLDKYAMGGITTFTPYQFQHFSEALTAPFKRIYFAGEYTAQFHGWIDSTIKSGLTAARDVNRASENPSGIHLSNDNEF
As to B2, the “specific activity (pentosidine oxidase)” value in data set [1] (enzyme concentration 1 mg/mL (biuret method), pH 7.5, 100 mM) is listed as 0.555 U/mg. The pentosidine oxidase activity in data set [1] amounted to 0.555 U/mL.

B3: Amino Acid Oxidase Type I Derived from Crotalus atrox: purchased enzyme manufactured by Merck, SEQ ID NO: 13 (protein)
chain: B2 chain
modifications: Crotalus atrox
For B3, the “specific activity, as a reference value (pentosidine oxidase)” value in data set [1] (pH 7.5, 100 mM) stood at 0.022 U/mg. The pentosidine oxidase activity in data set [1] is listed as 0.022 U/mL.

B4: PenOX1: protein having the amino acid sequence of SEQ ID NO: 2, pentosidine oxidase from Sarocladium sp., gene g4462 (protein, listed as Sarocladium sp.)
chain: MKSPSLAVAGLLLGSSSLSHATQLRIETRKSLNSRIANVHIDVDAPVAHQVVFTYGPCDSESQENAHHVIAQSQKLEGRKPHRLIWTMPKDLHPDDCISAWGESGDLLGRSVPQKVAHKEMRRRKRDDSDYSIPMNSSSGIDVYGPWFDGVALLEKSDNHNVDVEAAKAKEIAIVGAGMAGLTTYFILSEAGLSNLTILEASGRLGGRVRTEYLSGGPRDHSYAEMGPMRIPYQARFGDKAYNISDQAIFFRLVEKVNERNKKLGNTKDLINLIPFIQSSPNGLAYYQGNKLENGLPPTQADVAADPALGNESPEIPESAQELAAQLQRALPNAEFLELMATNFWQAHAEFLENQGPAGLPGDQWSEFAFLVNYLNATVFDANAVTGGYDWHSSLDRSSLVGMNLLPNAFHPLVDDITKFNAKVEKVQLDEKTSRLKLHWRANYTDPELESQSFDYAILSPTMPAVQKLRLPGLPFAMRNAVDSMPYASACKVALEYRTRFWEKFDNPIYGSCSTSTDIPGIGSVCYPSSNINGSGPASLLASYEIGRPYGAEWAGIPEEQHVQYVIDAMIDIHGEVARREFTGKCKRKCWALDEFSNGGWASPTVGNHETYLPSFFETHSHMIFVGEHTSYTHAWIASAIESAVRGSVQLLLELGLIDEAKDVVNTWMARWISVVSDLSKAVVSGASA
As for B4, the pentosidine oxidation activity result in data set [2] is recorded as “similarly exhibited pentosidine oxidation activity”.
